Target: SARS-CoV-2 prefusion-stabilized trimeric spike ectodomain (S2Pecto) (SARS-CoV-2) (UniProt P0DTC2)
Assay: ELISA on coated antigen

Substance “rCR3022 (recombinant form of the cross-reactive SARS-CoV SRBD mAb CR3022) (antibody)” has an EC50 of 0.0102 µg/mL.
